In paper PMC5467207, “Single-peptide DNA-dependent RNA polymerase homologous to multi-subunit RNA polymerase” (Nature Communications, 2017):

Tests used:
[1] = test system: T1, Nc1nc2c(ncn2[C@@H]2O[C@H](COP(=O)(O)OP(=O)(O)OP(=O)(O)O)[C@@H](O)[C@H]2O)c(=O)[nH]1; assay: misincorporation in assembled elongation complexes, Urea-PAGE, Michaelis-Menten fit; assay type: biochemical, Escherichia coli; conditions: misincorporation (non-cognate NTP for the template base), assembled elongation complex, pH 8.5, MgCl2
T1 construct: core enzyme without sigma, ~400 kDa five-subunit core (2α, β, β′, ω); 6xHis tag on the RNAP; with DNA-directed RNA polymerase subunit alpha; DNA-directed RNA polymerase subunit omega

[2] = substrate: Nc1ncnc2c1ncn2[C@@H]1O[C@H](COP(=O)(O)OP(=O)(O)OP(=O)(O)O)[C@@H](O)[C@H]1O; assay: RNA extension in assembled elongation complexes, Urea-PAGE, Michaelis-Menten fit; assay type: biochemical, Bacillus subtilis; conditions: 10 °C, assembled elongation complex (template DNA, RNA primer), 20 mM Tris-HCl pH 8.5, 40 mM KCl, 10 mM MgCl2
[3] = substrate: Nc1nc2c(ncn2[C@@H]2O[C@H](COP(=O)(O)OP(=O)(O)OP(=O)(O)O)[C@@H](O)[C@H]2O)c(=O)[nH]1; assay: misincorporation in assembled elongation complexes, Urea-PAGE, Michaelis-Menten fit; assay type: biochemical, Bacillus subtilis; conditions: misincorporation (non-cognate NTP for the template base), assembled elongation complex, pH 8.5, MgCl2

| Molecule | Km [1] | Km [2] | Km [3] |
| --- | --- | --- | --- |
| E. coli core msRNAP (Escherichia coli K-12) | 458 ± 23 µM | – | – |
| YonO (Bacillus subtilis subsp. subtilis str. 168) (protein, N-terminal 6xHis-tag, pET-28a, expressed in E. coli T7 Express; single chain, ~100 kDa) MKGKKDGLNKQVHIYSIDTSAFYNDQENKLHNKILKSYRYRDHLRKLEHVDKKHKKYITQRIISLKEKLYNAFNDHNQIRTLRTDSLKDNNVISLFDSVLTRTLGIKENSLSEEIMVVQTYHFQILRDIIDKGFIHNNEKYVYFTSSAGQIRTKKSCFIKQSTLDKYQNALTCGLSVEHINAQGGSSINKWNSYMALSNSASSSWEIDIDKAIVVNDLETNVSSLVDYIDRDTYEITRKIMDIPIEHTDGCGMMLPSLSQKSFMVRLPWVKGLLVPFDFRKFAEKHSSFIVKDVYGKEWDIIKDDIQIIFTKSQFKMWKYYDSWDDYRYKFKKYGCLGAKLNEEDPSVEGKLTYQMLQTLTDITDEELKQISSKTVSEITQLGTDKETMMKVLGATEKNKHKTSLQEALLIYPELLNDDHTKEIIKNKKKSMIKDAKSGKLLVSDARYTYLCPDLYAFCERLFLGIESPKGLLSGSDVHCSLYDEGYIDILRSPHLFREHGVRWNKKNEEYEKWFITPGVYTSIHDPISKLLQFDNDGDKALIISDELIVNIAKRNMADIVPLYYEMSVAQKQEINSRNIYEALTLAYGINIGEYSNNITKIWNSDNINLDVIKWLCMENNFTIDFAKTLFMPTRPDHVDEKIKDYIKNKVPHFFINAKDKEEHSVESINESTVNKLDSIIPSDRINFAAVAGKFDYRFLLKNKEIKLNEAVINEYKRLDRNKKWLMNDEEAKPGQKLYVYKIIKQKLLEIHNDDGFITDVLVKHLYKKKSKYKSTLWECFGDIVLENIKHNLKTFKGCCICGKAFKPTSNKAKYCQSCGKKKERDKYKKYNKKRINHR | – | 1.8 ± 0.7 µM | 126 ± 41 µM |
